According to patent publication US20230052142A1 (NORDIC BIOSCIENCE A S, published 2023):

Target: T1, monoclonal antibody clone NBH134 #102-3GF
T1 construct: also called TUM antibody; HRP labeled monoclonal antibody
Experiment: TUM competitive ELISA: the standard peptide in solution competes with plate-bound …-K-Biotin for the HRP-labelled antibody
Description: Plates were washed five times in washing buffer (20 mM TRIS, 50 mM NaCl, pH 7.2). Subsequently, 20 μL of standard peptide or sample were added to appropriate wells, followed by 100 μL of 7 ng/mL horseradish peroxidase (HRP) labeled monoclonal antibody solution. The plates were incubated for 1 hour at 20° C. with shaking, and subsequently washed in washing buffer. Finally, 100 μL 3,3′,5,5-tetramethylbenzinidine (TMB) (Kem-En-Tec cat. 4380H) was added, and incubated for 15 min at 20° C. To stop the enzyme reaction of TMB, 100 μL of stopping solution (1% H₂SO₄) was added. The plate was analyzed by an ELISA reader at 450 nm with 650 nm as reference (Molecular Devices, VersaMax, CA, USA). A standard curve was performed by serial dilution of the standard peptide and plotted using a 4-parametric mathematical fit model. Standard concentrations were 0, 0.3125, 0.625, 1.25, 2.5, 5, 10, and 20 ng/mL. Each plate included five kit controls to monitor inter-assay variation. All samples were measured within the range of the assay, and all samples below lower limit of measurement range (LLMR) were reported as the value of LLMR.

B1: standard peptide PGLKGKRGDS (peptide)
peptide: PGLKGKRGDS
notes: Synthetic peptide bought from Genscript; also called calibrator peptide; calibration peptide
IC50: 1.6 ng/mL
